In PMC2831474 (Archives of biochemistry and biophysics, 2010):

Target: preformed F-actin (chicken pectoral muscle skeletal actin polymerized with 0.1 M KCl) (chicken, UniProt P68139 1-377)
Assay: co-sedimentation

B1: N-acetylated striated muscle long α-tropomyosin (stTM) (natural protein)
chain: not shown
modifications: N-acetylated
- stoichiometry N: 0.25 ± 0.03 tropomyosin/actin molar ratio
